Measurements published in patent publication US20190300590A1 (PROTAGONIST THERAPEUTICS, published 2019).
*1 amine or outer side, *2 acyl side, *3 side chain or, on linkers, in order; H or OH if unused. Bridges are numbered along the chain shown (N, C = ends). Primed or numbered codes have the meaning given here. [ ]: non-standard residue; d: D form. Phe(4-OMe)(3) = O-methyl-L-tyrosine (4-methoxy-L-phenylalanine), COc1ccc(C[C@H](N[*:1])C(=O)[*:2])cc1; 2Nal = N[C@@H](Cc1ccc2ccccc2c1)C(=O)O; AEF = NCCOc1ccc(C[C@H](N)C(=O)O)cc1; Pen = CC(C)(S)[C@H](N)C(=O)O; αMeK = C[C@](N)(CCCCN)C(=O)O; Abu = CC[C@H](N)C(=O)O

T1: IL-23R on human cells (IL-23R-expressing DB cells; human NK cells) (human, UniProt Q5VWK5 24-629)
T1 sequence (looked up): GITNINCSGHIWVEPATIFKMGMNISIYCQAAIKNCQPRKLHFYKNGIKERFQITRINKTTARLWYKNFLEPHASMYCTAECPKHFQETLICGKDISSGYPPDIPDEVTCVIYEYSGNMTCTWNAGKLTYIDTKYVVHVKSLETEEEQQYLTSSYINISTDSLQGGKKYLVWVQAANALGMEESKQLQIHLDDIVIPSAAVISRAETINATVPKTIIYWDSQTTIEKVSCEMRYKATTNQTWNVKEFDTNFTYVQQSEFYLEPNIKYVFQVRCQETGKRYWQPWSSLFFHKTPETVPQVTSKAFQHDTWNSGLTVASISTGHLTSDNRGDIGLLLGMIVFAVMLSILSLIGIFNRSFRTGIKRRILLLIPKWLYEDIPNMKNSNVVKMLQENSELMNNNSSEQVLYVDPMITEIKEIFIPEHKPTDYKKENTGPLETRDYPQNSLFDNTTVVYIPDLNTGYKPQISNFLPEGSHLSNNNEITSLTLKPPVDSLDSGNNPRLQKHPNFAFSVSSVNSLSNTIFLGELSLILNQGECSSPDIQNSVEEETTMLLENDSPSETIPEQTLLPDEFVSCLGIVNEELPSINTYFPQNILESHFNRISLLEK

T2: Rat IL-23R_huFC (rat, UniProt F1LX96 39-369)
T2 sequence: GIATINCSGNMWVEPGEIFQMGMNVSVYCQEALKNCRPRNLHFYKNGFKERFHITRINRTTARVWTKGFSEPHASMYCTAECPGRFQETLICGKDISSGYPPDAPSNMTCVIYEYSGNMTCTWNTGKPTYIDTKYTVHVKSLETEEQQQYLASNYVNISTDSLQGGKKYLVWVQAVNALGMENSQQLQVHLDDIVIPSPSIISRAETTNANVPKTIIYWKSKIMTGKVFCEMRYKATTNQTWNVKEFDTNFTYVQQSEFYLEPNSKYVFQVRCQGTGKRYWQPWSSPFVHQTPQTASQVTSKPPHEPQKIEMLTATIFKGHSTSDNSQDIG

T3: IL23R_huFC (human, UniProt Q5VWK5 24-353)
T3 sequence (looked up): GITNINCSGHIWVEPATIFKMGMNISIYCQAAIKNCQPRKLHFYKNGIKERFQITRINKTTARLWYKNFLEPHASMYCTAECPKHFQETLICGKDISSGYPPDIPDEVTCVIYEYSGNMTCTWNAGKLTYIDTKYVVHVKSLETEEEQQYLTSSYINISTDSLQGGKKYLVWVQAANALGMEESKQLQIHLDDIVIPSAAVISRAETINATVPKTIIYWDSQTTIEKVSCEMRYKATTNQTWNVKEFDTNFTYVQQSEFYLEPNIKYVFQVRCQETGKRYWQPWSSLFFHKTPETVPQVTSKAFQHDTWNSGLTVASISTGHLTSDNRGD

T4: IL23R_huFC (human, UniProt Q5VWK5 24-353)
T4 sequence (looked up): T3 sequence (looked up)

T5: IL-23R on DB cells (human, UniProt Q5VWK5 24-629)
T5 sequence (looked up): T1 sequence (looked up)

B1: Ac-Cyclo-[[Abu]-QTWQC]-[Phe(4-OMe)]-[2-Nal][α-MeLys]-[Lys(Ac)]-NS-NH2 (peptide)
peptide: Ac-[Abu]QTWQC[Phe(4-OMe)(3)][2Nal][αMeK]K(Ac)NS-NH2
modifications: thioether 1-6
B2: Ac-Cyclo-[[Abu]-QTWQC]-[Phe(4-OMe)]-[2-Nal]-[α-MeOrn]-[Lys(Ac)]-NG-NH2 (peptide)
peptide: XQTWQCFXXKNG
modifications: as bracketed in name; thioether cyclo
B3: Ac-[Pen]-QTWQ-[Pen]-Y-[2-Nal]-[α-MeLys]-ENG-NH2 (peptide)
peptide: XQTWQXYXKENG
modifications: Ac; Pen-Pen disulfide; 2-Nal; α-MeLys; NH2
B4: Ac-[Pen]-QTWQ-[Pen]-[Phe[4-(2-aminoethoxy)]-[2-Nal]-[α-MeLeu]-[Lys(Ac)]-NN-NH2 (peptide)
peptide: XQTWQXFXLKNN
modifications: Ac; Pen-Pen disulfide; Phe[4-(2-aminoethoxy)]; 2-Nal; α-MeLeu; Lys(Ac); NH2
B5: Ac-[Pen]-QTWQ-[Pen]-[Phe[4-(2-aminoethoxy)]-[2-Nal]-[α-MeLeu]-QNN-NH2 (peptide)
peptide: XQTWQXFXLQNN
modifications: Ac; Pen-Pen disulfide; Phe[4-(2-aminoethoxy)]; 2-Nal; α-MeLeu; NH2
B6: Ac-[Pen]-QTWQ-[Pen]-[Phe[4-(2-aminoethoxy)]-[2-Nal]-[α-MeLys]-ENA-NH2 (peptide)
peptide: XQTWQXFXKENA
modifications: Ac; Pen-Pen disulfide; Phe[4-(2-aminoethoxy)]; 2-Nal; α-MeLys; NH2
B7: Ac-[Pen]-QTWQ-[Pen]-[Phe(4-OMe)]-[2-Nal]-[α-MeLys]-ENG-NH2 (peptide)
peptide: XQTWQXFXKENG
modifications: Ac; Pen-Pen disulfide; Phe(4-OMe); 2-Nal; α-MeLys; NH2
B8: Ac-[Pen]-QTWQ-[Pen]-Y-[α-MeLeu]-ENG-NH2 (peptide)
peptide: XQTWQXYWLENG
modifications: Ac; Pen-Pen disulfide; α-MeLeu; NH2
B9: Ac-[Pen]-QTWQ-[Pen]-YW-[α-MeOrn]-ENG-NH2 (peptide)
peptide: XQTWQXYWXENG
modifications: Ac; Pen-Pen disulfide; α-MeOrn; NH2
B10: pyroglutamic acid-[Pen]-QTWQ[Pen]-[Phe(4-OMe)]-[2-Nal]-[α-MeLys]-[Lys(Ac)]-NG-NH2 (peptide)
peptide: EXQTWQXFXKKNG
modifications: N-terminal pyroglutamic acid; Pen-Pen disulfide; Phe(4-OMe); 2-Nal; α-MeLys; Lys(Ac); NH2
B11: Ac-[Pen]-STWQ-[Pen]-[Phe[4-(2-aminoethoxy)]-[2-Nal]-[α-MeLys]-ENG-NH2 (peptide)
peptide: Ac-[Pen]STWQ[Pen][AEF][2Nal][αMeK]ENG-NH2
modifications: disulfide 1-6 (inferred)
B12: Ac-[Pen]-QTWQ-[Pen]-[Phe[4-(2-acetylaminoethoxy)]-[2-Nal]-[α-MeLys(Ac)]-ENA-NH2 (peptide)
peptide: XQTWQXFXKENA
modifications: Ac; Pen-Pen disulfide; Phe[4-(2-acetylaminoethoxy)]; 2-Nal; α-MeLys(Ac); NH2
B13: Ac-[Pen]-TTWQ-[Pen]-[Phe[4-(2-aminoethoxy)]-[2-Nal]-[α-MeLys]-ENG-NH2 (peptide)
peptide: Ac-[Pen]TTWQ[Pen][AEF][2Nal][αMeK]ENG-NH2
modifications: disulfide 1-6 (inferred)
B14: Ac-[Pen]-QTWQ-[Pen]-[Phe[4-(2-acetylaminoethoxy)]-[2-Nal]-[α-MeLeu]-[Lys(Ac)]-NN-NH2 (peptide)
peptide: XQTWQXFXLKNN
modifications: Ac; Pen-Pen disulfide; Phe[4-(2-acetylaminoethoxy)]; 2-Nal; α-MeLeu; Lys(Ac); NH2
B15: Ac-[Pen]-QTWQ-[Pen]-[Phe[4-(2-acetylaminoethoxy)]-[2-Nal]-[α-MeLeu]-QNN-NH2 (peptide)
peptide: XQTWQXFXLQNN
modifications: Ac; Pen-Pen disulfide; Phe[4-(2-acetylaminoethoxy)]; 2-Nal; α-MeLeu; NH2
B16: gallic acid-[Pen]-QTWQ[Pen]-[Phe(4-OMe)]-[2-Nal]-[α-MeLys]-[Lys(Ac)]-NG-NH2 (peptide)
peptide: XQTWQXFXKKNG
modifications: N-terminal gallic acid; Pen-Pen disulfide; Phe(4-OMe); 2-Nal; α-MeLys; Lys(Ac); NH2
B17: Ac-[Pen]-QTWQ-[Pen]-YW-[α-MeLys]-[Lys(Ac)]-NG-NH2 (peptide)
peptide: XQTWQXYWKKNG
modifications: Ac; Pen-Pen disulfide; α-MeLys; Lys(Ac); NH2

molecular target: Rat IL-23R_huFC (rat); assay: rat ELISA vs IL-23

Row | IC50 | Binder
1 | 10 to 25 nM | B1
2 | 10 to 25 nM | B2

molecular target: T1, IL-23R on human cells …; assay: cell-based or functional assay

Row | pStat3 HTRF IC50 | Binder
3 | < 10 nM | B1
4 | < 10 nM | B2

molecular target: T2, Rat IL-23R_huFC; assay: rat IL-23R competitive binding ELISA

Row | IC50 | Binder
5 | 100 to 1000 nM | B3
6 | < 10 nM | B4
7 | < 10 nM | B5
8 | 25 to 100 nM | B6
9 | 100 to 1000 nM | B7
10 | 100 to 1000 nM | B8
11 | 100 to 1000 nM | B9
12 | 25 to 100 nM | B10

molecular target: T3, IL23R_huFC; assay: IL23-IL23R competitive binding ELISA

Row | IC50 | Binder
13 | 25 to 100 nM | B3
14 | 10 to 25 nM | B11
15 | 10 to 25 nM | B12
16 | 10 to 25 nM | B13
17 | < 10 nM | B4
18 | < 10 nM | B14
19 | < 10 nM | B5
20 | < 10 nM | B6
21 | 25 to 100 nM | B7
22 | < 10 nM | B15
23 | 25 to 100 nM | B8
24 | 1000 to 10000 nM | B16
25 | 100 to 1000 nM | B17
26 | 100 to 1000 nM | B9
27 | 25 to 100 nM | B10

molecular target: T4, IL23R_huFC; assay: human ELISA vs IL-23

Row | IC50 | Binder
28 | 10 to 25 nM | B1
29 | 10 to 25 nM | B2

molecular target: T5, IL-23R on DB cells; assay: cell-based or functional assay

Row | pStat3 HTRF IC50 | Binder
30 | < 10 nM | B3
31 | < 10 nM | B11
32 | < 10 nM | B12
33 | < 10 nM | B13
34 | < 10 nM | B4
35 | < 10 nM | B14
36 | < 10 nM | B5
37 | < 10 nM | B6
38 | < 10 nM | B15
39 | 10 to 25 nM | B8
40 | < 10 nM | B10
